The text below walks through data of PMC10168641.

The target of the test is NcCAR reductase (R) domain, NcCAR^Δ1–649 (Neurospora crassa). Kind of test: SAXS; R-domain in solution; best fit of the experimental data as a mixture of monomer and dimer.

In general, stoichiometry N refers to the number of molecules, sites or subunits per partner or assembly.

For “NcCAR reductase (R) domain, NcCAR^Δ1–649 (domain or fragment)”, the percent dimer in solution turned out to be 69%, the percent monomer in solution came out at 31% and the stoichiometry N worked out at 2.
